Laboratory results reported in the DeepSol protein solubility set.

Assay: soluble on expression in E. coli; label from the status in PepcDB or PDB records

Row | Sequence | soluble on expression in E. coli
1 | MSLVGYSAVSQPSPASFLLGPTLPPAPSIAFRLWRPYSMTARITSVEALPYRLPLTSKLAWGAHSALSAAEHVLVRVTLSDGSVGVAEATPRPTIYGETPGSVTAILQHLEPALLGLDIADEAALNRVRGSVAGNHTARGALDMALWEARAASRGQSLFDTLLGPHERVRVSFILGIAPPAEMLAEAERVVAAGVRCLKVKVGRHAAQDLQVIAELRRRYGDDVQLYADSNETLTLEQAPDVLAAMREAGLMYVEEPLPARDLRARAALHAAGVLPIVADDSCFTPADLERELDFDTFDVLNVKTARNGFTDGLQMLRRAAEHGKRGMVGSQASTGLGTLHAALLSTQAEVTEPCELSFVLKLGDDLLNRPIEFQDGWLNVPELREHRLDEDKLARYRIEGHHHHHH | not soluble
2 | SLSWDSVVERIRIFLVESPIKMARLQGVGNVKGSVKRVLLEVTSADGIVGWGEAAPWEVFTGTPEAAFSALDIYLRPLILGAPIKRVRELMARMDKMLVGHGEAKAAVEMALLDILGKATGLSVADLLGGRVRDRIPLSFSIADPDFDADLERMRAMVPAGHTVFKMKTGVKPHAEELRILETMRGEFGERIDLRLDFNQALTPFGAMKILRDVDAFRPTFIEQPVPRRHLDAMAGFAAALDTPILADESCFDAVDLMEVVRRQAADAISVKIMKCGGLMKAQSLMAIADTAGLPGYGGTLWEGGIALAAGTQLIAATPGISLGCEFYMPHHVLTEDVLEERIANSAGHVIVPDGPGLGISISEASLRGNAKILAER | soluble
3 | MKIFVCEDDQRQREHMVSIIKNYIMIEEKPMELALATNDPYEVLEQSKELNDIGCYFLDIQLEADMNGIKLASEIRKHDPVGNIIFVTSHSELTYLTFVYKVAAMDFIFKDDPSELKMRIIDCLETAHTRLKLLSKESNVDTIELKRGSNSVYVQYDDIMFFESSTKSHRLIAHLDNRQIEFYGNLKELAQLDERFFRCHNSFVINRHNIESIDSKERIVYFKNGENCFASVRNVKKI | not soluble
4 | MGSDKIHHHHHHMIIIELNKRQEHIIQIVKDHGPITGESIAAQLGLTRATLRPDLAILTMAGYLEARPRVGYFYTGKTGGQLLSEAVKKIKVQDYQSRPVVIDKNVSVYDAICTMFLEDVGTLFVVDQSTLLVGVVSRKDLLRASLGKQDLTSLPVNIIMTRMPNIAMCRREDSLYDIAMELIERQIDAMPVVKDTKQGLEVVGRITKTNITRAFVNLVNNE | not soluble
5 | MGSDKIHHHHHHMVIHKETMRSANEKSVLQRIFTEGPISKSQVARDVSLNKVTVSQIINKFISSRLVVEAGSGDSTQQGGRKPELVQINSKYGYVVCIDLGYQELSVLSMSINGQKLDSRHTIFGNDDINIAIEKIYEILVEFQEMHKERLLGLLVSIHGIVHKNQVIYSPFWNMKQIDLADTLSKKFDIPVILENEANLTATFERDYSVNEIQNAVSISMHKGIGAGIIIDGELYRGRKGEAGEIGQTVAFESENQSLEKSNKIEDVCSPQVILARIKNAKKLEYINWQLVRQMFDDKDQETLEILKEFENNVAKIINNVIVSFDPDVLVVNAYIFKEFPEILERISNGFAHVSVRNTPIVLSENVKNASLYGGCAQMIRTILGVSKLKLQYKK | not soluble
6 | GSSGSSGQFSDMRISINQTPGKSLDFGFTIKWDIPGIFVASVEAGSPAEFSQLQVDDEIIAINNTKFSYNDSKEWEEAMAKAQETGHLVMDVRRYGK | soluble
7 | MPTVLRWTRTMCKRPTCRVRQAWLVLPITGRWPSGGVSMKHACMLDSALPKPSQHSLRRQLNAIKREQFPWMSEVTKNAPQMAIIQLGRAFQNFFAGRAKYPKFRKKGMHDRFTLTNDQFDLEASRIRIPRLGWVRMRETLRFAGKIMLATVSRVAGRWFVSITVDVPDPSHLPQAENQGTVGVDLGVLVLATLSTGETVCGPRPHRALLGRVCRLSRSVLRKVKGSANRHKAKATLANLHARIAAIRLDALHTLTSDLTRRFHTIGIENLNVKGMLRNRHLARSIADIGFFEFRRQLEYKAMMRGGQVVVANRFFASSKRCLTCGHTLNELPLSVRQWACPACGARHDRDVNAAVNLKNMAVSSTVSACGEEGAGPRRKTAVGEAGSQLLEHHHHHH | not soluble
8 | MSVDPNLLTPYKNTGAANASLRQISEDAFYVVNEVVMKRLGHVPILKGDFHLLPAKVQRFIAEKAELMRPRGIFICDGSQHEADELIDKLIERGMLSKLEAYENNYICRTDPKDVARVESKTWMVTKNKYDTVTHTKEGVEPIMGHWLAPEDLATELDSRFPGCMAGRIMYVIPFSMGPVGGPLSKIGIQLTDSNYVVLSMRIMTRVNNDVWDALGNQDFVRCIHSVGLPRPVKQRVINHWPCNPERVLIAHRPPEREIWSFGSGYGGNSLLGKKCFALRIASNIAKDEGWMAEHMLIMGVTRPCGREHFIAAAFPSACGKTNLAMLEPTLPGWKVRCVGDDIAWMKFGEDGRLYAINPEAGFFGVAPGTSNKTNPMAVATFQKNSIFTNVAETANGEYFWEGLEDEIADKNVDITTWLGEKWHIGEPGVAAHPNSRFAAPANQCPIIHPDWESPQGVPIEAIIFGGRRPQGVPLIYETNSWEHGVFTGSCLKSEATAAAEFTGKTVMHDPMAMRPFMGYNFGKYLQHWLDLKTDSRKMPKIYHVNWFRKDSNNKFLWPGFGDNIRVIDWIIRRLDGEQEIGVETPIGTVPAKGSINLEGLGEVNWDELMSVPADYWKQDAQEIRKFLDEQVGEDLPEPVRAEMDAQEKRVQTL | not soluble
9 | IPLARTVRCNCIHIDDGPVRMRAIGKLEIIPASLSCPRVEIIATMKKNDEQRCLNPESKTIKNLMKAF | soluble
10 | MNYKITTLVENCVYGRKLQAEHGLSLYIETPENRLLFDTGASDLFIRNARLLNIDLQKVDYLVLSHGHSDHTGGLRHFLELNAEATVVCKREVFFSKFKDERENGMKYTRSLDLSRFRFIDELTELVPGVFLFPSVDIIDPKDTHFERFWIQKEDGSRVPDTFPDELAMVLVEPEGLSILSACSHRGITNILRTVRTAFPELPCNLLLGGFHIHNAEESKYQVIADYLHEYLPQKIGVCHCTGVDKYAFFYKDFGDRIFYNHTGKLIQTDSLL | not soluble
11 | MTREHPPEPLDFFIWTVEDVGSWLEEINLGGYRQIFKENGVNGEYLESMSVFTTEQILHFIRRHHMKWGDFITLCKELRRIKVACLKGEQRVRRPWWAPSCLSVVFVKAAKRNRQSRVVSLKLES | not soluble
12 | MIYAYIRVSTDKQTVENQRFEINRFAKQRDFQIDVWVEETVSGTRSAKDRKLGVLLKRIKKGDTLIVSEISRLGRRLMEVMSILNACMLKNVILLTVKEKYELGNNIQSQILAFAFSLSAQIERDLISQRTREGLARRIASGQKLGRPMGGHNSKYKLTGKEEKIKAMLEAGTSKAEMARKLKVSRNTLAAFLNRNRTGIPSN | not soluble
13 | GPGSMDFVPTVAVIRANPVEGVRYAYTSTVSDNRYDSFVEDAVMQYSGNVNEADGSDRASPRFSGRSVVNLQRAILQCGDIRVSDKQDAEPVGVWRCLAGAILAACCFLRSYSTCPSESFDECGAEVCDAFVPAGVAMIIFSGVCDTRPLSFSEECPFSAAVTAATRLRTAVHVFGPAVVSSALGLRLQALANTTGGIWAPQFALSHVGYLMELAVRRNGQREMDSATNSRRQRELLVERYVVPPACLPQDPAQTGVASGENVSYLAWLCSACLATLVRHPHEEVGAIRMCPYCAASK | not soluble
14 | MKLVRPQKISDQVLSVLEERIAEGVYAEGGKIPPERVLAEEFGVSRPSVRSALNVLVARQVLEARQGDGYYVSVKPQQDFLQSWQELLGKHSNWEQDVFDFSCHIEGCMAALAAERRTDADLKRIGFWLEKFEEACESGNLEHQSEADVSFHQTIADAAHNLLFSHLSGGLLKMLYRQTRSSLIYLNQEEDPRPKLMAQHRVLYEAISNRRPGEASEAAKAHLNYVASSILKDREYQSRNRHADTLAQNDLKRVQDWAV | soluble
15 | SRPVGPLARRGCCSAPGTPEVPLTRERYPVQRLPFSTVSKQDLAAFERIVPGGVVTDPEALQAPNVDWLRTLRGCSKVLLRPRTSEEVSHILRHCHERNLAVNPQGGNTGMVGGSVPVFDEIILSTARMNRVLSFHSVSGILVCQAGCVLEELSRYVEERDFIMPLDLGAKGSCHIGGNVATNAGGLRFLRYGSLHGTVLGLEVVLADGTVLDCLTSLRKDNTGYDLKQLFIGSEGTLGIITTVSILCPPKPRAVNVAFLGCPGFAEVLQTFSTCKGMLGEILSAFEFMDAVCMQLVGRHLHLASPVQESPFYVLIETSGSNAGHDAEKLGHFLEHALGSGLVTDGTMATDQRKVKMLWALRERITEALSRDGYVYKYDLSLPVERLYDIVTDLRARLGPHAKHVVGYGHLGDGNLHLNVTAEAFSPSLLAALEPHVYEWTAGQQGSVSAEHGVGFRKRDVLGYSKPPGALQLMQQLKALLDPKGILNPYKTLPSQA | soluble
16 | MNRMKTKQIDRHLAKFAYSEEFVGDTKRSTAAYTSVREDASIGSTHKLPLEVEEFGKMSNTVILGCGLSGMLTALSFAQKGIKTTIFESKSVKSPEFFKDIRTTALTPHSKNFLFSIDIWEELEKFVAEMQDIYVVDNQASEILDLRNDADAVLGYVVKNSDFKKMLLSKITNNPLITLIDNNQYQEVISHNDYSIIKFDDNQIKCNLLIICDGANSKVRSHYFANEIEKPYQTALTFNIKHEKPHENCAMEHFLPFGPFALLPLKDQYASSVIWSTSSDQAALIVNLPVEEVRFLTQRNAGNSLGKITIDSEISSFPLKARIANRYFHNRIVLIADTAHTVHPLAGQGLNQGIKDIEILSMIVSNNGPLQEYQKLRQEDNFIMYKLTDELNNIFSNHSKNLRCLRQIGFKVINNFKPVKNLITSYAMGKR | not soluble
17 | MKKLIINYTELVDYLLENRGMDGYIYFYESMETEQGIVISFSTFDTGDSIYRMKFCPSDHGYDTSLEPGSYSQSEYGTSFEEEDVEGYIAGLDEIIADKYKEFYDEDVEVVFVD | soluble
18 | MPSRLSLIAALLLPLAVQAEPADTRALLADSLADSQAQVEAAEQAMRRSENKAVQLYAKRVLTEQQEFDHQLRALAGEKALALPSPRQTERQAAAPGGFDERGFLDAQIRQQDRLVARFEGIARDSADPDLRRFADEWLARFYHHRELADQLRSGRAD | not soluble
19 | MYILVTTGSMGFKRLFDAIVKSVIGKRIVIQTGKIDPTIYRNQNVTTFSFDPDLEKWIANASLVITHQGKTAMEAVVMYRKPVIMVYNNDWKSATTLSDAKKYAEILGATFLSDPITWSDYNVLLEAIENANEPNVFDTGTPNLVKHVLSEL | soluble
20 | MIIMEKGVVSDSYEVAIARNPHLAEYLSKYRNETGRSPSFLVNIDSSLKSLAHVDVIYPVGDPIFIHIYERGKERRYKPIEPLLKDDEFEFMDAILDIIMSRASDYPPAENEEEQEKNIEDVYKKTVSVGSNKIKRNSVTLEKPLYDKMLYNVKKEIIGLGPLEPLIRDSHIEDISGIGPEDVYIVHKIFGSMPTDITFGSMERLMRFSKRLSERVGRPVSDKRPIVDATLPDGSRLSIVYSTDISQRGPSFTIRKFSEIPLSILNLIKYNTMSYEEAAYLWLALEYGQSVFVCGETASGKTTVVNAIIPFIRPESKIFSAEDTPEIRAPQKAWQQLVTRESGAEESRVTLYDLLRTALRSRPNYIIVGEIRGAEGAMAFQAMQTGHPVISTFHASSVKKMIQRFTGNPINIPVTFMDNLNIVLIQQAVYVGGKFLRRTTSINEIEGYYEDLGGVATRAVFEWDPSTDRHMFRGMNNSYILEEKIAKTAGLVDTSLIYNELFRRARILKDLADQKILDYYQVYEKIKEFYEGALANGY | not soluble
